{"source": "paper PMC5558430", "about": "(The Biochemical journal, 2017)", "molecules": {"B1": {"name": "GTP cyclohydrolase IB (GCYH-IB) (Neisseria gonorrhoeae FA 1090) (protein)", "chain": "MNAIADVQSSRDLRNLPINQVGIKDLRFPITLKTAEGTQSTVARLTMTVYLPAEQKGTHMSRFVALMEQHTEVLDFAQLHRLTAEMVALLDSRAGKISVSFPFFRKKTAPVSGIRSLLDYDVSLTGEMKDGAYGHSMKVMIPVTSLCPCSKEISQYGAHNQRSHVTVSLTSDAEVGIEEVIDYVETQASCQLYGLLKRPDEKYVTEKAYENPKFVEDMVRDVATSLIADKRIKSFVVESENFESIHNHSAYAYIAYP"}, "B2": {"name": "Neisseria gonorrhoeae GTP cyclohydrolase IB, wild type (enzyme)", "chain": "B1 chain", "modifications": "S-nitrosylated Cys149 (as purified from E. coli)"}}, "key": {"[1]": {"molecular_target": "Neisseria gonorrhoeae GCYH-IB Glu152Ala mutant (Neisseria gonorrhoeae) (UniProt Q5F9K6)", "test": "SEC"}, "[2]": {"molecular_target": "Neisseria gonorrhoeae GCYH-IB Cys149Ala mutant (Neisseria gonorrhoeae) (UniProt Q5F9K6)", "test": "SEC"}, "[3]": {"molecular_target": "Neisseria gonorrhoeae GCYH-IB Glu243Ala mutant (Neisseria gonorrhoeae) (UniProt Q5F9K6)", "test": "SEC"}, "[4]": {"molecular_target": "GTP cyclohydrolase IB (GCYH-IB) (Neisseria gonorrhoeae, UniProt Q5F9K6)", "test": "X-ray crystal structure at […] Å", "format": "biochemical"}, "[5]": {"molecular_target": "T1, GTP cyclohydrolase IB (GCYH-IB) (Neisseria gonorrhoeae, UniProt Q5F9K6)", "T1 sequence (Q5F9K6 1-257)": "B1 chain", "test": "competitive inhibition kinetics, fluorescence assay of neopterin", "format": "biochemical"}, "[6]": {"molecular_target": "Neisseria gonorrhoeae GCYH-IB His246Asp mutant (Neisseria gonorrhoeae) (UniProt Q5F9K6)", "test": "SEC"}, "[7]": {"molecular_target": "Neisseria gonorrhoeae GCYH-IB His246Asn mutant (Neisseria gonorrhoeae) (UniProt Q5F9K6)", "test": "SEC"}, "[8]": {"molecular_target": "Neisseria gonorrhoeae GCYH-IB His246Ala mutant (Neisseria gonorrhoeae) (UniProt Q5F9K6)", "test": "SEC"}, "[9]": {"molecular_target": "Neisseria gonorrhoeae GCYH-IB Cys149Ser mutant (Neisseria gonorrhoeae) (UniProt Q5F9K6)", "test": "SEC"}, "[10]": {"molecular_target": "Neisseria gonorrhoeae GCYH-IB His246Gln mutant (Neisseria gonorrhoeae) (UniProt Q5F9K6)", "test": "SEC"}, "[11]": {"molecular_target": "Neisseria gonorrhoeae GCYH-IB His246Lys mutant (Neisseria gonorrhoeae) (UniProt Q5F9K6)", "test": "SEC"}, "[12]": {"substrate": "Nc1nc2c(ncn2[C@@H]2O[C@H](COP(=O)(O)OP(=O)(O)OP(=O)(O)O)[C@@H](O)[C@H]2O)c(=O)[nH]1", "test": "steady-state kinetics", "format": "biochemical, Neisseria gonorrhoeae", "conditions": "Mn2+ active site"}, "[13]": {"molecular_target": "the molecule itself", "test": "crystal structure"}}, "data": [{"molecule": "Neisseria gonorrhoeae GCYH-IB Glu152Ala mutant (from UniProt Q5F9K6 1-257) (enzyme)", "values": [{"measurement": "stoichiometry N", "setting": "[1]", "value": 4}]}, {"molecule": "Neisseria gonorrhoeae GCYH-IB Cys149Ala mutant (from UniProt Q5F9K6 1-257) (enzyme)", "values": [{"measurement": "stoichiometry N", "setting": "[2]", "value": 4}]}, {"molecule": "Neisseria gonorrhoeae GCYH-IB Glu243Ala mutant (from UniProt Q5F9K6 1-257) (enzyme)", "values": [{"measurement": "stoichiometry N", "setting": "[3]", "value": 4}]}, {"molecule": "Nc1nc2c([nH]c(=O)n2[C@@H]2O[C@H](CO[P@@](=O)(O)O[P@@](=O)(O)OP(=O)(O)O)[C@@H](O)[C@H]2O)c(=O)[nH]1", "note": "[8-oxo-GTP]", "values": [{"measurement": "Ki", "setting": "[4]", "value": 0.149, "unit": "µM"}]}, {"molecule": "Nc1nc2c(ccn2[C@@H]2O[C@H](COP(=O)(O)OP(=O)(O)OP(=O)(O)O)[C@@H](O)[C@H]2O)c(=O)[nH]1", "note": "[7-deaza-GTP]", "values": [{"measurement": "Ki", "setting": "[5]", "value": 45.7, "unit": "µM"}]}, {"molecule": "Neisseria gonorrhoeae GCYH-IB His246Asp mutant (from UniProt Q5F9K6 1-257) (enzyme)", "values": [{"measurement": "stoichiometry N", "setting": "[6]", "value": 4}]}, {"molecule": "Neisseria gonorrhoeae GCYH-IB His246Asn mutant (from UniProt Q5F9K6 1-257) (enzyme)", "values": [{"measurement": "stoichiometry N", "setting": "[7]", "value": 4}]}, {"molecule": "Nc1nc2c(ncn2[C@H]2C[C@H](O)[C@@H](COP(=O)(O)OP(=O)(O)OP(=O)(O)O)O2)c(=O)[nH]1", "note": "[2′-deoxyGTP]", "values": [{"measurement": "Ki", "setting": "[5]", "value": 164, "unit": "µM"}]}, {"molecule": "Neisseria gonorrhoeae GCYH-IB His246Ala mutant (from UniProt Q5F9K6 1-257) (enzyme)", "values": [{"measurement": "stoichiometry N", "setting": "[8]", "value": 4}]}, {"molecule": "Neisseria gonorrhoeae GCYH-IB Cys149Ser mutant (from UniProt Q5F9K6 1-257) (enzyme)", "values": [{"measurement": "stoichiometry N", "setting": "[9]", "value": 4}]}, {"molecule": "Neisseria gonorrhoeae GCYH-IB His246Gln mutant (from UniProt Q5F9K6 1-257) (enzyme)", "values": [{"measurement": "stoichiometry N", "setting": "[10]", "value": 4}]}, {"molecule": "Neisseria gonorrhoeae GCYH-IB His246Lys mutant (from UniProt Q5F9K6 1-257) (enzyme)", "values": [{"measurement": "stoichiometry N", "setting": "[11]", "value": 4}]}, {"molecule": "B1", "values": [{"measurement": "Km", "setting": "[12]", "value": 9.15, "unit": "µM"}]}, {"molecule": "B2", "values": [{"measurement": "stoichiometry N", "setting": "[13]", "value": 4}]}]}
